In this assay the target is T1, PhnD E177NΔ (E. coli, UniProt P16682 27-329, acrylodan on Cys 126).
T1 chain: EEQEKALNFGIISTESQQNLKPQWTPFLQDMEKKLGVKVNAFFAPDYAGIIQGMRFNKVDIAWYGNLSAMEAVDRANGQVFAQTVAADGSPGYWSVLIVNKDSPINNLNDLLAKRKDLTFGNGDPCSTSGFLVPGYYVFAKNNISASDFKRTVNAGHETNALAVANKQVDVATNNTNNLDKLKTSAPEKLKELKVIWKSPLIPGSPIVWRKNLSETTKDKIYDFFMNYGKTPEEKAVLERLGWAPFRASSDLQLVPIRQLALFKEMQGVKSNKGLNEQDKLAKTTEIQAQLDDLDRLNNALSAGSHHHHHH
Briefly: cell-based or functional assay.

The record followed here is patent publication US20220276241A1 (TRUSTEES OF INDIANA UNIVERSITY, published 2022).

B1: Fab N2 (Fab, V domains shown)
VH: EVQLVESGGGLVQPGGSLRLSCAASGFNFSSSIHWVRQAPGKGLEWVASISSSSGSTSYADSVKGRFTISADTSKNTAYLQMNSLRAEDTAVYYCARQWSSVMEWYIGLDYWGQGTLVTVSS
VL: DIQMTQSPSSLSASVGDRVTITCRASQSVSSAVAWYQQKPGKAPKLLIYSASSLYSGVPSRFSGSRSGTDFTLTISSLQPEDFATYYCQQSSSSLITFGQGTKVEIKR
Turning to B1, the “Kd of the PhnD mutant for glyphosate in the presence of Fab N2 (fluorescence titration)” value amounted to 0.45 µM and the “fold improvement of the Kd for glyphosate on adding Fab N2, compared to the mutant in the absence of Fab N2” value is approximately 18 fold.
